Experimental data reported in paper PMC6002714, “Bovine Herpesvirus 1 UL49.5 Interacts with gM and VP22 To Ensure Virus Cell-to-Cell Spread and Virion Incorporation: Novel Role for VP22 in gM-Independent UL49.5 Virion Incorporation” (Journal of Virology, 2018).

Target: the molecule itself
Experiment: non-reducing SDS-PAGE with immunoblot; lysates of virus-infected MDBK cells separated by SDS-PAGE without DTT (compared with +DTT), immunoblotted with anti-UL49.5 or anti-gM; shows only covalently (disulfide) linked complexes

B1: BHV-1 envelope glycoprotein M (gM) (natural protein)
chain: MAGSAQPAAVHWRLWLAQVGVFAALALLLLITLIGAASPGAGLPCFYAAIVNYNARNLSADGGAWAQRELGARHPALFLETPTTAAFSAYTAVVLLAVAAFDVAAAIIIRRENSGGFAAAYHMNALATLATPPGALLLGALAAWTLQAAVLLLSHKIMVLAAATYLAHAGAAAAFVGLFCTAGLPGAEYAQAVHALRERSPRAHRLLGPGRAVMINLAGGLLALIIGTAPLMLGQLLGAGLGLSLAQTVVAGVTVFCLAAVLFLVLTELVLSRYTQVLPGPAFGTLVAASCIAVASHDYFHQLRGVVRTQAPGLPLGVKLALAGVALLAVAMLVLRLVRACLHHRRKGSAFYGHVSAARQQAARYIARARSSRGMAPLEGDAAALLDRGVASDDEEAVYEADARPARQPYR
notes: glycoprotein M of bovine herpesvirus type 1, encoded by the UL10 gene; gM open reading frame nt 84816 to 86051 of GenBank JX898220 (complementary strand; residues up to 411); expressed from the viral genome; 36-kDa immature, EndoH-sensitive gM in infections with the C42S mutants; also called 43-kDa mature gM; 36-kDa immature gM; source: BHV-1 wt or UL49.5 mutant virus-infected MDBK cells, in …
stoichiometry N: 2
